Measured values: the supplement of paper PMC9112550, “Optimization of the antimicrobial peptide Bac7 by deep mutational scanning” (BMC Biology, 2022)

Test system: Escherichia coli TOP10
Assay: shrunken log2 fold change of peptide-encoding DNA abundance (4.5 h post-induction vs induction); higher = less antimicrobial activity (less host growth inhibition)
Settings: time post-induction: 4.5 h; library: site-saturation at positions 5, 18, 19, 20
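Note: peptides expressed intracellularly from a pBAD plasmid library in pooled LB shake-flask culture, induced with 0.3% L-arabinose, DNA abundance read by NGS, three biological replicates, DESeq2 with apeglm shrinkage.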

Sequence	shrunken log2 fold change
RRIRGRPPRLPRPRPRPKGEPRP	0.197
RRIRGRPPRLPRPRPRPKGKPRP	1.16
RRIRGRPPRLPRPRPRPKIEPRP	0.566
RRIRGRPPRLPRPRPRPKIRPRP	0.118
RRIRGRPPRLPRPRPRPKPSPRP	1.1
RRIRGRPPRLPRPRPRPKQVPRP	0.541
RRIRGRPPRLPRPRPRPKRIPRP	0.147
RRIRGRPPRLPRPRPRPKWGPRP	0.215
RRIRGRPPRLPRPRPRPKWPPRP	0.322
RRIRGRPPRLPRPRPRPKYFPRP	-0.251
RRIRGRPPRLPRPRPRPKYQPRP	0.159
RRIRGRPPRLPRPRPRPLCHPRP	0.775
RRIRGRPPRLPRPRPRPLEHPRP	0.594
RRIRGRPPRLPRPRPRPLESPRP	1.12
RRIRGRPPRLPRPRPRPLEYPRP	0.123
RRIRGRPPRLPRPRPRPLFMPRP	0.223
RRIRGRPPRLPRPRPRPLGTPRP	0.736
RRIRGRPPRLPRPRPRPLGVPRP	0.835
RRIRGRPPRLPRPRPRPLGYPRP	0.885
RRIRGRPPRLPRPRPRPLHMPRP	0.379
RRIRGRPPRLPRPRPRPLIAPRP	1.27
RRIRGRPPRLPRPRPRPLIGPRP	0.561
RRIRGRPPRLPRPRPRPLITPRP	0.676
RRIRGRPPRLPRPRPRPLKQPRP	-0.115
RRIRGRPPRLPRPRPRPLLMPRP	1.22

Sequence	shrunken log2 fold change
RRIRGRPPRLPRPRPRPLLRPRP	0.485
RRIRGRPPRLPRPRPRPLMAPRP	1.39
RRIRGRPPRLPRPRPRPLMMPRP	0.647
RRIRGRPPRLPRPRPRPLNEPRP	0.57
RRIRGRPPRLPRPRPRPLPGPRP	1.01
RRIRGRPPRLPRPRPRPLPYPRP	-0.086
RRIRGRPPRLPRPRPRPLQEPRP	1.56
RRIRGRPPRLPRPRPRPLRLPRP	1.34
RRIRGRPPRLPRPRPRPLRYPRP	0.688
RRIRGRPPRLPRPRPRPLSKPRP	0.425
RRIRGRPPRLPRPRPRPLSNPRP	0.416
RRIRGRPPRLPRPRPRPLTFPRP	0.077
RRIRGRPPRLPRPRPRPLVQPRP	0.802
RRIRGRPPRLPRPRPRPLVSPRP	0.355
RRIRGRPPRLPRPRPRPMAGPRP	0.0763
RRIRGRPPRLPRPRPRPMANPRP	0.057
RRIRGRPPRLPRPRPRPMCRPRP	0.393
RRIRGRPPRLPRPRPRPMDHPRP	-0.137
RRIRGRPPRLPRPRPRPMDKPRP	0.378
RRIRGRPPRLPRPRPRPMEAPRP	1.27
RRIRGRPPRLPRPRPRPMESPRP	0.295
RRIRGRPPRLPRPRPRPMGEPRP	0.902
RRIRGRPPRLPRPRPRPMGHPRP	0.202
RRIRGRPPRLPRPRPRPMGVPRP	0.00855
RRIRGRPPRLPRPRPRPMIMPRP	-0.0509

Sequence	shrunken log2 fold change
RRIRGRPPRLPRPRPRPMKDPRP	0.55
RRIRGRPPRLPRPRPRPMKFPRP	0.0112
RRIRGRPPRLPRPRPRPMNDPRP	0.337
RRIRGRPPRLPRPRPRPMNSPRP	0.0334
RRIRGRPPRLPRPRPRPMNVPRP	-0.176
RRIRGRPPRLPRPRPRPMPWPRP	0.25
RRIRGRPPRLPRPRPRPMQLPRP	0.539
RRIRGRPPRLPRPRPRPMRLPRP	1.05
RRIRGRPPRLPRPRPRPMRTPRP	2
RRIRGRPPRLPRPRPRPMSKPRP	0.269
RRIRGRPPRLPRPRPRPMSMPRP	0.257
RRIRGRPPRLPRPRPRPMTMPRP	0.146
RRIRGRPPRLPRPRPRPMVAPRP	1.17
RRIRGRPPRLPRPRPRPMVPPRP	0.202
RRIRGRPPRLPRPRPRPMWQPRP	0.418
RRIRGRPPRLPRPRPRPMYKPRP	0.0271
RRIRGRPPRLPRPRPRPMYWPRP	-0.0689
RRIRGRPPRLPRPRPRPNACPRP	0.212
RRIRGRPPRLPRPRPRPNAPPRP	0.938
RRIRGRPPRLPRPRPRPNARPRP	0.501
RRIRGRPPRLPRPRPRPNDYPRP	-0.0119
RRIRGRPPRLPRPRPRPNFGPRP	0.128
RRIRGRPPRLPRPRPRPNFHPRP	0.611
RRIRGRPPRLPRPRPRPNGKPRP	0.311
RRIRGRPPRLPRPRPRPNGTPRP	0.54
